# What was measured:
# Conditions in all cases: both partners purified
# [1] = target: T1, recombinant wild-type C1q (UniProt P02745 23-245; P02746 28-253; P02747 29-245); assay: SPR; LAIR-1 Ig-like domain injected at increasing concentrations (4-128, 4-256 or 3.125-400 µM) over immobilized C1q, rC1q variants, C1qCLR_nc2 variants or C1qstem_nc2 (CM5, amine coupling); 25 °C; 50 mM Tris, 150 mM NaCl, 2 mM CaCl2, 0.05% surfactant P20, pH 7.5; KD from Req versus concentration, steady-state model
# T1 construct: Complement C1q, A chain; Complement C1q, B chain; Complement C1q, C chain; also called rC1q WT; source: recombinant, produced and purified as reported in Bally et al. [20]; copies: + +
# serum-derived C1q [2] = target: T2, serum-derived C1q (human, UniProt P02745 23-245); P02746 28-253; P02747 29-245, hydroxyprolines in the collagen-like region (shown as O in Figure 8A) | hydroxyprolines in the collagen-like region (shown as O in Figure 8A) | hydroxyprolines in the collagen-like region (shown as O …); assay: as above
# T2 construct: Complement C1q, A chain; Complement C1q, B chain; Complement C1q, C chain; 18 polypeptide chains, six A-B-C heterotrimers, 460 kDa; also called sC1q; source: purified from human serum; copies: 6 + 6 + 6
# [3] = target: T3, recombinant C1q mutant with an alanine substitution of LysA59, LysB61 and LysC58 (UniProt P02745 23-245; P02746 28-253; P02747 29-245, alanine substitution of LysA59 | alanine substitution of LysB61 | alanine …); assay: as above
# T3 construct: Complement C1q, A chain; Complement C1q, B chain; Complement C1q, C chain; also called rC1q ABC; source: recombinant, produced and purified as reported in Bally et al. [20]; copies: + +
# serum-derived C1q [4] = target: T2, serum-derived C1q; assay: SPR; LAIR-1 Ig-like domain (WT or mutant) injected at 10 µM over C1q or C1q fragment amine-coupled to a CM5 chip (sC1q 14,000 RU, sCLR 6000 RU, sGR 1500 RU); 25 °C; 50 mM Tris, 150 mM NaCl, 2 mM CaCl2, 0.05% surfactant P20, pH 7.5; association 180 s; mutants as percentage of the WT response at equilibrium
# serum-derived C1q [5] = target: T2, serum-derived C1q; assay: SPR; sC1q (1 nM), alone or preincubated with C1r2s2 at increasing molar ratios (1-5; 15 min at 25 °C), injected over immobilized LAIR-1 Ig-like domain (330 RU); 50 mM Tris, 150 mM NaCl, 2 mM CaCl2, 0.05% surfactant P20, pH 7.5; 25 °C; avidity effects
# T2 sequence (P02745 23-245, chain 1 of 3): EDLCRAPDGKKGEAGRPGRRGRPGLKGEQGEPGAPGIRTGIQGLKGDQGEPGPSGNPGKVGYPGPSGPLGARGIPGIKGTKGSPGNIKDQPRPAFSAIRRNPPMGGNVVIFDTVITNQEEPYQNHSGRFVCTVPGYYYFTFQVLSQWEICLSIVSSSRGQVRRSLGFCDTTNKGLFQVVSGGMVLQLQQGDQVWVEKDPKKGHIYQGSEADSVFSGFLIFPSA
# T2 sequence (P02746 28-253, chain 2 of 3): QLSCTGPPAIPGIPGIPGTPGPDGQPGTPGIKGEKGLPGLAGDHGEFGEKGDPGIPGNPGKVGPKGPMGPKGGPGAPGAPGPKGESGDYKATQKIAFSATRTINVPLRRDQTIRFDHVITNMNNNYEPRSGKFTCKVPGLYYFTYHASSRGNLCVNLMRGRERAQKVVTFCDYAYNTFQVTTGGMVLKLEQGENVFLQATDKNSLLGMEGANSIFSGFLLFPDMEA
# T2 sequence (P02747 29-245, chain 3 of 3): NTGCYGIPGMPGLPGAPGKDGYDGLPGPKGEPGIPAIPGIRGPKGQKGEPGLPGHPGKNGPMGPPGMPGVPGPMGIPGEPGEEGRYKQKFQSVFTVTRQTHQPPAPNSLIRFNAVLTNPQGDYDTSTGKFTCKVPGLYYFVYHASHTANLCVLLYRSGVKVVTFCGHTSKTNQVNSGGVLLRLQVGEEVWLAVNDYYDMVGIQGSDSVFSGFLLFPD
# T1 sequence (P02745 23-245, chain 1 of 3): as the sequence (P02745 23-245, chain 1 of 3) above
# T1 sequence (P02746 28-253, chain 2 of 3): as the sequence (P02746 28-253, chain 2 of 3) above
# T1 sequence (P02747 29-245, chain 3 of 3): as the sequence (P02747 29-245, chain 3 of 3) above
# T3 sequence (P02745 other isoform, or with tags, fused parts or gaps with the stated changes, chain 1 of 3): as the sequence (P02745 23-245, chain 1 of 3) above, with K59A counted along it
# T3 sequence (P02746 other isoform, or with tags, fused parts or gaps with the stated changes, chain 2 of 3): as the sequence (P02746 28-253, chain 2 of 3) above, with K61A counted along it
# T3 sequence (P02747 other isoform, or with tags, fused parts or gaps with the stated changes, chain 3 of 3): as the sequence (P02747 29-245, chain 3 of 3) above, with K58A counted along it
binding result (serum-derived C1q [4]),Binder,further results
binds,"LAIR-1 Ig-like domain E111K (domain or fragment, human, UniProt Q6GTX8 22-122, looked up, LAIR-1 (CD305), C2-type Ig-like domain, residues 22 to 122) QEEDLPRPSISAEPGTVIPLGSHVTFVCRGPVGVQTFRLERDSRSTYNDTEDVSQASPSESEARFRIDSVREGNAGLYRCIYYKPPKWSKQSDYLELLVKE",–
binds,"LAIR-1 Ig-like domain P107R (domain or fragment, human, UniProt Q6GTX8 22-122, looked up, LAIR-1 (CD305), C2-type Ig-like domain, residues 22 to 122) QEEDLPRPSISAEPGTVIPLGSHVTFVCRGPVGVQTFRLERDSRSTYNDTEDVSQASPSESEARFRIDSVREGNAGLYRCIYYKPRKWSEQSDYLELLVKE",–

# Second part, the binder before the results:
Binder,binding result (serum-derived C1q [4]),further results
"LAIR-1 Ig-like domain, wild type (domain or fragment, human, UniProt Q6GTX8 22-122, looked up, Leukocyte associated immunoglobulin-like receptor 1 (LAIR-1; CD305), C2-type Ig-like domain, residues 22 to 122; pET28a construct; intact disulfide bond by ESI-MS; also called LAIR-1 WT; soluble LAIR-1 Ig-like domain) QEEDLPRPSISAEPGTVIPLGSHVTFVCRGPVGVQTFRLERDSRSTYNDTEDVSQASPSESEARFRIDSVREGNAGLYRCIYYKPPKWSEQSDYLELLVKE",–,Kd [1]: 99.5 µM; Kd (serum-derived C1q [2]): 112 µM; Kd [3]: 132 µM
"LAIR-1 Ig-like domain I102L (domain or fragment, human, UniProt Q6GTX8 22-122, looked up, LAIR-1 (CD305), C2-type Ig-like domain, residues 22 to 122) QEEDLPRPSISAEPGTVIPLGSHVTFVCRGPVGVQTFRLERDSRSTYNDTEDVSQASPSESEARFRIDSVREGNAGLYRCLYYKPPKWSEQSDYLELLVKE",binds,–
"LAIR-1 Ig-like domain E72K (domain or fragment, human, UniProt Q6GTX8 22-122, looked up, LAIR-1 (CD305), C2-type Ig-like domain, residues 22 to 122) QEEDLPRPSISAEPGTVIPLGSHVTFVCRGPVGVQTFRLERDSRSTYNDTKDVSQASPSESEARFRIDSVREGNAGLYRCIYYKPPKWSEQSDYLELLVKE",binds,–
"recombinant C1r2s2 tetramer (C1s, C1rS637A) (complex, Complement C1r protease; Complement C1s protease; also called C1r2s2 proteases tetramer; source: recombinant, purified according to published procedures [42]; copies: 2 + 2) chain 1: SIPIPQKLFGEVTSPLFPKPYPNNFETTTVITVPTGYRVKLVFQQFDLEPSEGCFYDYVKISADKKSLGRFCGQLGSPLGNPPGKKEFMSQGNKMLLTFHTDFSNEENGTIMFYKGFLAYYQAVDLDECASRSKSGEEDPQPQCQHLCHNYVGGYFCSCRPGYELQEDTHSCQAECSSELYTEASGYISSLEYPRSYPPDLRCNYSIRVERGLTLHLKFLEPFDIDDHQQVHCPYDQLQIYANGKNIGEFCGKQRPPDLDTSSNAVDLLFFTDESGDSRGWKLRYTTEIIKCPQPKTLDEFTIIQNLQPQYQFRDYFIATCKQGYQLIEGNQVLHSFTAVCQDDGTWHRAMPRCKIKDCGQPRNLPNGDFRYTTTMGVNTYKARIQYYCHEPYYKMQTRAGSRESEQGVYTCTAQGIWKNEQKGEKIPRCLPVCGKPVNPVEQRQRIIGGQKAKMGNFPWQVFTNIHGRGGGALLGDRWILTAAHTLYPKEHEAQSNASLDVFLGHTNVEELMKLGNHPIRRVSVHPDYRQDESYNFEGDIALLELENSVTLGPNLLPICLPDNDTFYDLGLMGYVSGFGVMEEKIAHDLRFVRLPVANPQACENWLRGKNRMDVFSQNMFCAGHPSLKQDACQGDAGGVFAVRDPNTDRWVATGIVSWGIGCSRGYGFYTKVLNYVDWIKKEMEEED chain 2: EPTMYGEILSPNYPQAYPSEVEKSWDIEVPEGYGIHLYFTHLDIELSENCAYDSVQIISGDTEEGRLCGQRSSNNPHSPIVEEFQVPYNKLQVIFKSDFSNEERFTGFAAYYVATDINECTDFVDVPCSHFCNNFIGGYFCSCPPEYFLHDDMKNCGVNCSGDVFTALIGEIASPNYPKPYPENSRCEYQIRLEKGFQVVVTLRREDFDVEAADSAGNCLDSLVFVAGDRQFGPYCGHGFPGPLNIETKSNALDIIFQTDLTGQKKGWKLRYHGDPMPCPKEDTPNSVWEPAKAKYVFRDVVQITCLDGFEVVEGRVGATSFYSTCQSNGKWSNSKLKCQPVDCGIPESIENGKVEDPESTLFGSVIRYTCEEPYYYMENGGGGEYHCAGNGSWVNEVLGPELPKCVPVCGVPREPFEEKQRIIGGSDADIKNFPWQVFFDNPWAGGALINEYWVLTAAHVVEGNREPTMYVGSTSVQTSRLAKSKMLTPEHVFIHPGWKLLEVPEGRTNFDNDIALVRLKDPVKMGPTVSPICLPGTSSDYNLMDGDLGLISGWGRTEKRDRAVRLKAARLPVAPLRKCKEVKVEKPTADAEAYVFTPNMICAGGEKGMDSCKGDSGGAFAVQDPNDKTKFYAAGLVSWGPQCGTYGLYTRVKNYVDWIMKTMQENSTPRED",–,binding result (serum-derived C1q [5]): binds
